From PMC6601540 (mAbs, 2019)
“And” between values parts separate entries of the source, which are not always exact repeats. Equal entries are not always repeated.

How the values were obtained:
[1] = target: refolded PD-1 protein (L25-R147) expressed in E. coli (Homo sapiens, UniProt Q15116); assay: SPR
[2] = target: human PD-1 on 293T cells stably transfected with human PD-1 (human, UniProt Q15116); assay: flow cytometry on cells
[3] = target: recombinant human PD-1 extracellular domain (ECD) fusion protein (human, UniProt Q15116); assay: ELISA
recombinant human PD-1 extracellular domain (ECD) fusion protein, sequence (Q15116 25-170): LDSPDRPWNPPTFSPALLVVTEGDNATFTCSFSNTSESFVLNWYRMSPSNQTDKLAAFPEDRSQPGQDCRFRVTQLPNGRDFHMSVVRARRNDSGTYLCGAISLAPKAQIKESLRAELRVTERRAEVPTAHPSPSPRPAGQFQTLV

human PD-1 on 293T cells stably transfected with human PD-1, sequence (Q15116 25-288): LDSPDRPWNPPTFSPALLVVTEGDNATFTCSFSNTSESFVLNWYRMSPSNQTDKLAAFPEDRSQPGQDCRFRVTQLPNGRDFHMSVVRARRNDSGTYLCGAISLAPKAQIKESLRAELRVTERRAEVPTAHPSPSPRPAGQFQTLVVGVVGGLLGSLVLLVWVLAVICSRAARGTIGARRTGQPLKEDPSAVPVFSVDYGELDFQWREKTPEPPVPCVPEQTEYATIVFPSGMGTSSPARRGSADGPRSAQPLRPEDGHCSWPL
refolded PD-1 protein (L25-R147) expressed in E. coli, sequence (Q15116 25-147): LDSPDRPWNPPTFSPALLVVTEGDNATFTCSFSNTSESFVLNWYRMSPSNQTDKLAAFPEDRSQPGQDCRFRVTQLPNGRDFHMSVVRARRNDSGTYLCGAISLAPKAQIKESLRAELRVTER

B1: toripalimab (antibody, V domains shown)
VH: QGQLVQSGAEVKKPGASVKVSCKASGYTFTDYEMHWVRQAPIHGLEWIGVIESETGGTAYNQKFKGRVTITADKSTSTAYMELSSLRSEDTAVYYCAREGITTVATTYYWYFDVWGQGTTVTVSS
VL: DVVMTQSPLSLPVTLGQPASISCRSSQSIVHSNGNTYLEWYLQKPGQSPQLLIYKVSNRFSGVPDRFSGSGSGTDFTLKISRVEAEDVGVYYCFQGSHVPLTFGQGTKLEIK
- Kd [1]: 0.324 nM
- IC50 [2]: 1.3 nM and 3.7 nM
- IC50 [3]: 0.8 nM and 1.3 nM
